The results in this text go back to US20110104713A1, “PRODUCTS AND PROCESSES FOR MODULATING PEPTIDE-PEPTIDE BINDING DOMAIN INTERACTIONS” (priority 2002, published 2011).

For assay [1], the target named is T1, GST-Plk-1 PBD (residues 326-603) interaction with mitotic phosphoproteins (Homo sapiens, UniProt P53350).
T1 construct: GST-Plk-1 (residues 326-603) was immobilized on glutathionine beads; made in house; host or cells: E. coli BL21
Description: Peptide competition of GST-Plk-1 PBD pull-down of MPM-2 mitotic phosphoproteins from HeLa lysates. The assay is classed as binding. The note with it: 320 μM peptide, 45 minutes at 4° C., nocodazole-arrested HeLa lysates. The protocol: HeLa cells were arrested in interphase or G2/M by treatment with aphidicolin (5 μg/mL) or nocodazole (50 ng/mL), respectively, for 16 hours. Cells were lysed in 25 mM Tris/HCl (pH 7.5) containing 125 mM NaCl, 0.5% NP-40, 5 mM EDTA, 2 mM DTT, 4 μg/mL pepstatin, 4 μg/mL aprotinin, 4 μg/mL leupeptin, 1 mM Na3VO4, 50 mM NaF, and […] microcystin, and 150 μgs of lysate incubated with 10 μL of glutathione agarose beads containing 2-5 μg of GST-Plk-1 (residues 326-603), GST-Pin1, or GST for 30 minutes at 4° C. Beads were washed four times with lysis buffer. Precipitated proteins were eluted in sample buffer and detected by blotting with monoclonal MPM-2 (Upstate Biotechnology, Inc.) or polyclonal anti-Cdc25C (Santa Cruz Biotechnology, Santa Cruz, Calif.). For peptide competition experiments, GST-Plk-1 (residues 326-603) was immobilized on glutathionine beads and preincubated with 320 μM of PoloBoxtide-optimal, −8T, or −7V for 45 minutes at 4° C. For binding experiments involving mutant cdc25C, HeLa cells were transfected with wild-type and mutated versions of HA-tagged Cdc25C in pECE using Superfect (Qiagen, Valencia, Calif.). Nocodazole (50 ng/mL) was added seventeen hours after transfection and cells incubated for an additional 14 hours to arrest them in G2/M. Point mutations of Cdc25C were constructed using the QuickChange site-directed mutagenesis system (Stratagene) and verified by DNA sequencing.

In the next assay the target is T2, GST-Plk1 (full-length) (Homo sapiens, UniProt P53350).
T2 construct: SF9 cells infected with baculoviral GST-Plk1 (full-length) were lysed; made in house; host or cells: SF9 insect cells (baculovirus)
Description: Plk1 kinase assay (32P-incorporation into casein) with peptide activation. In kind it is biochemical. Particulars: 250 μM peptide pre-incubated 5 minutes at room temperature; three independent experiments. Here is the method:
SF9 cells infected with baculoviral GST-Plk1 (full-length) were lysed in 20 mM Hepes/KOH (pH 7.5), 135 mM NaCl, 1% NP40, 5 mM EGTA, 5 μM 13-mercaptoethanol, 35 mM NaF, 0.5 mM Na3VO4, 20 mM β-glycerolphosphate, 3 μM microcystin, 1 μM okadaic acid, 10 μg/mL pepstatin, 10 μg/mL leupeptin, and 10 μg/mL aprotinin. Lysates were incubated for 2 hours at 4° C. with glutathione beads, which were subsequently washed five times with 20 mM Hepes/KOH (pH 7.5), 415 mM NaCl, 0.1% CHAPS, 5 mM EGTA, 5 μM β-mercaptoethanol, 35 mM NaF, and 0.5 mM Na3VO4 at 4° C. Bound proteins were eluted with a buffer containing 30 mM glutathione, 50 mM Hepes/KOH (pH 8.0), 25 mM NaCl, 2 mM MgCl2, 1 mM EGTA, and 5 μM β-mercaptoethanol and dialyzed against 10 mM Hepes, 10 mM NaCl, 1 mM EGTA, 1 mM DTT for 3 hours at 4° C. Kinase reactions were performed in 20 mM Hepes/KOH (pH7.5), 15 mM KCl, 10 mM MgCl2, 1 mM EGTA, 100 µM ATP, 5 μCi γ-[^32P]-ATP, 1 mM DTT, and […] casein for 15 minutes at 30° C. Reaction aliquots were removed at various time points, added to sample buffer, and boiled to arrest phosphorylation. ^32P-incorporation into casein was determined by SDS-PAGE electrophoresis, autoradiography, and densitometry using ImageQuant software (Molecular Dynamics). […]

T1 sequence (P53350 326-603): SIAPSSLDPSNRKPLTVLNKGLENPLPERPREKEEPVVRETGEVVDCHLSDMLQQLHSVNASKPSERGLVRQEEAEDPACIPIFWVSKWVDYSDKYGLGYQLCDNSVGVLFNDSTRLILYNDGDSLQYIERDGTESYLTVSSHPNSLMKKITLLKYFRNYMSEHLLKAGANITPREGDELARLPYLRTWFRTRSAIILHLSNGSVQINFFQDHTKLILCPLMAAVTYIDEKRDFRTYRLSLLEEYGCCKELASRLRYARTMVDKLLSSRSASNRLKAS
T2 sequence (P53350 whole entry): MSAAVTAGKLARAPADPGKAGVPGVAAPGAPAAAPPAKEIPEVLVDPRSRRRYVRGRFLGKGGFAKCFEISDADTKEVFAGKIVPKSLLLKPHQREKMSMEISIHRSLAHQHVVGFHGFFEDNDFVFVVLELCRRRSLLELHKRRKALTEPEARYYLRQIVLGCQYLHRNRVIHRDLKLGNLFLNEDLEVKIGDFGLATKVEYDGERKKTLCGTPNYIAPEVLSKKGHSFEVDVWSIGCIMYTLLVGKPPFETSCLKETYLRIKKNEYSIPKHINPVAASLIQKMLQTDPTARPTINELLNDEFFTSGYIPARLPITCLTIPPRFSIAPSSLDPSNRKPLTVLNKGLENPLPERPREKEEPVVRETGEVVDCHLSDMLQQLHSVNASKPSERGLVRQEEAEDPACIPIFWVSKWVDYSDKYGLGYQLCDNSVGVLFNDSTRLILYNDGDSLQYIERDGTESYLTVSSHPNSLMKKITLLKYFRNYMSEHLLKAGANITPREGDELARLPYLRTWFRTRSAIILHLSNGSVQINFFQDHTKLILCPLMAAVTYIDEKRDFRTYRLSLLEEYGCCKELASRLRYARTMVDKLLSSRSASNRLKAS

For the substance “MAGPMQ-S-T-P-LNGAKK (MAGPMQSTPLNGAKK) [PoloBoxtide-8T]”, the “effect of peptide pre-incubation on GST-Plk-1 PBD binding of MPM-2 epitopes” value in assay [1] is recorded as “not”; in assay [1] (listed as 8T), “had no effect”. Moreover, in the assay with GST-Plk1 (full-length), the “enhancement of Plk1 kinase activity (rate of casein phosphorylation), factor” value was “had no effect”.
